Reference: the nanobody polyreactivity screen of Harvey et al. (2022)

Experiment: yeast display, Sf9 membrane polyspecificity reagent, FACS + sequencing; frameworks hold sequencing errors
In short: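 A synthetic nanobody library was expressed on Saccharomyces cerevisiae BJ5465 by galactose induction for 36–48 hours. The library was stained for 1 hour at 4 °C with 10% biotinylated, detergent-solubilized Sf9 membrane reagent and enriched with streptavidin microbeads before FACS. Low and high (top ~1%) gates were set on anti-HA fluorescence for expression and streptavidin fluorescence for reagent binding, and each polyreactivity label reflects the gate of origin.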

QVQLVESGGGLVQAGGSLRLSCAASGSIFWYNAMGWYRQAPGKERELVAGITSGGDTNYADSVKGRFTISRDNAKNTVYLQMNSLKPEDTAVYYCAKRWYGGRRYDYWGQGTQVTVSS
polyreactivity (PSR sort gate): low polyreactivity

QVQLVESGGGLVQAGGSLRLSCAASGITFRYNAMGWYRQAPGKERELVAAITFSGGSTYYADSVKGRFTISRDNAKNTVDLQMNSLKPEDTAVYYCAKLGSTSSRGNYDYWGQGTQVTVSS
polyreactivity (PSR sort gate): low polyreactivity

QVQLVESGGGLVQAGGSLRLSCAASAFILQRNAMGWYRQAHGKERELVAAISSRGGSTYYADSVKGRFTISRDNAKNTVYLQMNSLKPEDTAVYYCNRRSRAHGYGSQYDYWGQGTQVTVSS
polyreactivity (PSR sort gate): low polyreactivity

QVQLVESGGGLVQAGGSLRLSCAASGSIFPSNAMGWYRQAPGKERELVATIGRGGTTNYADSVKGRFTISRDNAKNTVYLQMNSLKPEDTAVYYCNAERIWRYKYGYDYWGQGTQVTVSS
polyreactivity (PSR sort gate): high polyreactivity

QVQLVESGGGLVQAGGSLRLSCAASGSTYSYYVMGWYRQAPGKERELVAAISRSGGRTYYADSVKGRFTISRDNAKNTVYLQMNSLKPEDTAVNYCAAREFDHPPYDYWGQGTQVTVSS
polyreactivity (PSR sort gate): high polyreactivity

QVQLVESGGGLVQAGGSLRFSCPASGLIFYYYVMGWYRQAPGKEREFVAAIRYRSSSTYYADSVKGRFTISRVNAKNTVYLQMNSVKPEDTAVYYCGADIYTYNLFYHGRWLDYNYWGQGTQVTVSS
polyreactivity (PSR sort gate): high polyreactivity

QVQLVESGGGLVQAGGSLRLSSAASGYIFGANGMGWYRQAPGKERELVATITSGGRTYYADSVKGRFTISRDNAKNNVYLQMNSLKPEDTAVYYCAAKLQYRWTWGYYYWGQGTQVTVSS
polyreactivity (PSR sort gate): high polyreactivity

QVQLVESGGGLVQAGGSLRLSCADSGSIFAYAMGCSRQAPRKESELVAGISSSGGRTYYADSVKGRFSISRDNAKNTVYLQMNSLKPEDTAVYYCAAKRWGLYKGYYWGQGTQVTVSS
polyreactivity (PSR sort gate): high polyreactivity

QVQLVESGRGLVQAGGSHRLSCAASGSTITYYTMGWYREAPGKERELVAAISGSGGRTYYADSVKGRFTISRDNAKNTVYLQMNSLKPEDTAVYYCAAVYQLSRYDYWGQGTQVTVSS
polyreactivity (PSR sort gate): high polyreactivity

QVQLVESGGGLVQAGGSLRLSCAASGSTFTTYPMGWYRQAPGKERELVAAISTNGGRTFYADSVKGRFTISGDNAKKTVYLQMNSLKPEDTAVYYCAAEYGLYAPGYYYWGQGTQVTVSS
polyreactivity (PSR sort gate): low polyreactivity

QVQLVESWGGLVQAGGSLRLSCAASGLILFAYTMGWYRQAPGKERELVAGIDGSGGTTYYADSVKGRFTISRDNAKNTVYLQMNSLNPEDTAVYYCAASGFRWQGVKRMDYWGQGTQVTVSS
polyreactivity (PSR sort gate): low polyreactivity

QVQLVESGGGLFQAGGSLRLSCAASATTFGVNAMGLYRQATGKERELVAAITVSAGSTYYADSVKGRFTISRDNAQNTVYLQMNSMKPEDSAVYYCAAEEREWRTDIYDYWGQGTQVTVSS
polyreactivity (PSR sort gate): low polyreactivity

QVQLVESCGGLVPAGGSLRLSCAASGSTFRYAMGWYRQTPGKERELVDAITRSGGSTYYAYSVKVRFTISRDKAKNTVYLQMNSLKPEDTAVYYCNARRGKGKSYGDYGYGYWGQGTQVTVSS
polyreactivity (PSR sort gate): high polyreactivity

QVQLVESGGGLVQAGGSLRLSCAASGLIFRYKAMGWYRQAPGKERELVAAISRSRGTTYYADSVKGRFTISRDNAKNTVYLQMNSLKPEDTAVYYCATRISQSYYNYGYWGQGTQVTVSS
polyreactivity (PSR sort gate): high polyreactivity

QVQLVESGGGLVQAGGSLRLSCAASVLTFYEYAMGWYRQAPGKERELVASISGRAASTDYADSVKGRFTISRDNAKNTVYLQMNSLKPEDTAVYYCAVGVVGDIDTDGYWGQGTQVTVSS
polyreactivity (PSR sort gate): low polyreactivity

QVQLVESGGGLVQAGGSLRLSCAASGGIFSYYAMGWSRQSPGKEREFVAAIDWGGGSTYYADSVKGRFTISRDNAKNTLNLQMNSLKPEDTAVYYCAAEIYPIRWDDYDYWGQGTQVTVSS
polyreactivity (PSR sort gate): low polyreactivity

QVQLEESGGGLVQAGGSLRLSCAASGSIFFEYAMGWYRQAAGKERELVASINRGGGSTYYADSVKGRYTISRDNAKKNVYLQMNSLKPEDTAVYYCAAQWKYRQSYLDYYWGQGTQVTVSS
polyreactivity (PSR sort gate): low polyreactivity

QVQLVESGGGLVQAGGSLRLSCAASGSIFDVNAMGWYRQAPWKERELVAAISDSGGSTYYADSVKGRFTISRDNANNTVYLQMNSLKPEDTAVYYCNADWSWYNYYDFDYWGQGTQVTVSS
polyreactivity (PSR sort gate): low polyreactivity

QVQLVDSEVGLVQAGGSHRLSCSASARTFGRYAMGWYRQAPGKERELVATIRWRVGSTYYADSVKGSFTISRDNAKNTVYLQMNSLKPEDTAVFYCAARRYSSGLTDDYWGQGTQVTVSS
polyreactivity (PSR sort gate): high polyreactivity

QVQHVESGGGLVQAGGSLRLSCAAYYAMGWYRQAPGKERELVAAISSTGRTNYADSVKGRFTISRDNAKNTVYLQMNSLKPEDTAVYYCNAGDPSGMDYWGQGTQVTVSS
polyreactivity (PSR sort gate): low polyreactivity

QVQLVESGGGLVQAGGSLRLSCAASGSTIYVKAMGWYRQAPGKEREFVAAITWNSGSTYYADSVKGRFTISRDNAKKTVYLQINSLKPEDTAVYYCAAVLSVLVYGYVYWGQGTQVTVSS
polyreactivity (PSR sort gate): low polyreactivity

QVQLVESGGGLVQAGGSLRLSCAASGRTFNHYAMGWYRQAPGKERELVAGITISGGSTYYADSVKGRFTISRDHAKNTVDLQMNSLKPEATAVYYCNAVSDYYRQSKWTMDYWGQGTQVTVSS
polyreactivity (PSR sort gate): low polyreactivity

QVQLVESGGGLVQAGGSLRLSCAASGSTFYRNSMGWYRQAPGKEREFVAAISFRGGGTYADSVKGRFTISRDNAKNTVYLQMNSLKPEDSAVYYCAADHQSYRRRYEYWGQGTQVTVSS
polyreactivity (PSR sort gate): low polyreactivity

QVQLVESGGGLVQAGGSLRLSCAASGRTFLVNAMGWSRQAPGKERELVAAISQRGGSTDYADSVKGRFTISRDNAKNTVYLQMNSLKPEDTAVYYCAVRWGYLYDYWGQGTQVTVSS
polyreactivity (PSR sort gate): low polyreactivity

QVQLVESGGGLVQAGGSLRLSCAASGRIFTKYAMGWYRQAPGKERELVAAITTSGGSTYYADSVKGRFTISRDNAKNTVYLQMNSLKPEDTAVYYCAARTYHRYDYWGQGTQVTVSS
polyreactivity (PSR sort gate): high polyreactivity

QVQLVESGGGLVQAGGSLRLSCAASGRTFYVNTMGWYRPAPGKEREFVAAITWRDGSTYYADSVKGRFTISRDNAKNTVYPQMNSLKPEDTAVYYCAARNSHDGYYDEYYYWGQGTQVTVSS
polyreactivity (PSR sort gate): low polyreactivity

QVQLQESGGGLVQAGGSLRPSCAASGSISDGVRMGWYRQAPGEEGELVATTVLGATTNYADSVKGRFTISRGNAKNTVYLLMTSLKAEATAVYYCAAPLRYDKGFSYWGQGTQVTVSS
polyreactivity (PSR sort gate): low polyreactivity

QVQLVESGGGLVQAGGSLRLSCAAYGRTIFFNAMGWYIQAPGKERELVAAISRGGSRTFYADSVKGRFTISRDNAKNTVYFQMNSLKPEDPAVYYCNAVAQSGRYDYWGQGTQVTVPS
polyreactivity (PSR sort gate): high polyreactivity

QVQLVESGGGLVQAGGSLRLSCAASGSIFGYYAMVWKRQAPGKESELVAAMNYSGVSTYYADSVKGRFTISRDNAKNTVYLQMNSLKPEDSAVYYCARDIRRKGFRYDYWGQGTQVTVSS
polyreactivity (PSR sort gate): high polyreactivity

QVQLVESGGGLVQAGGSLRLSCAASVRIFAKYAMGWYRQAPGKERELVAAIRWRGGNTYYADSVKGRFTISRDNAKNTVYLQMNSLKPEDTAVYYCAAGTWLGRGYIGQVESWGQGTQVTVSS
polyreactivity (PSR sort gate): high polyreactivity

QVQLVESGGGLVQAGGSLRLSCAASGIIFWYYAMGWYRQAPGKERELVAAISQSGGRTYYADSVKGRFTISRDNAKNTVYLQMNSLKPEDTAVYYCAAEPYTGYGYWGQGTQVTVSS
polyreactivity (PSR sort gate): high polyreactivity

QVQLVESGGGLVQAGGSLRLSCAASGRIFRRNTMGWYRQAPGKERELVAAITSSGGSTYADSVKGRFTISRDNAKNTVYLQMNSLKPEDTAVYYCAAVRLYRYDYWGQGTQVTVSS
polyreactivity (PSR sort gate): low polyreactivity

QVQLVESGGGLVQAGGSLRLSCAASGRIFPAYAMGWYRQAPGKEREWVASIRRGGITYADSVKGRFTISRDNAKNTVYLQMNSLKPEDTAVYYCNADYRGWGYHMDYWGQGTQVTVSS
polyreactivity (PSR sort gate): low polyreactivity

QDQLVESGGGLVQAGGSLRLSCAASGTIFFGYSMGSYRQAPGKERDLVASISSADTTYYADSVKGRFTISRDNAKNTVYLQMNSLKPEDTAVYYCAAREGQLWEDGDYWGQGTQVTVSS
polyreactivity (PSR sort gate): low polyreactivity

QVQLVESGGCLVQAGGSLRLSCAASGGIFYPNAMGWYRQAPGKEREFVASITRSGGSTYYADSVKGRFTISRDNAKNTVYLQLNSLTPEDTAVYDCAAAYKSLYTYTRFYYWGQGTQVTVSS
polyreactivity (PSR sort gate): high polyreactivity

QFQLVESGGGLVQAGGSLRLSCAASGRTFYYYVMGWYRQAPGKERELVAAITIRGGSTYYADSVKGRFTISRDNAKNTVYLQMNSLKPEDTAVYYCNARGGSSTYGNYYWGQGTQVTVSS
polyreactivity (PSR sort gate): low polyreactivity

QVQLVESGGGLVQSGGTLRLSCAASGSTFYVNAMGWYRLAPGKERELVAAINYSGGNTYYADSVKGRFTFSRDNAKNTVYLQMNTLKQEDTAVYYCAVDLIIKGYPWWIEDDYWGQGTQVTVSS
polyreactivity (PSR sort gate): high polyreactivity

QVQIVESGGCLVQAGGSLRLSCAASGFTLFLNSMGWYRQAPGQERELVAAISKSDGITYYADSVKGRFSISRDNAKNTVYLKMNSLKPEDTAVYYCNADARGWSVWDPGEYNYWGQGTQVNVSS
polyreactivity (PSR sort gate): low polyreactivity

QVQLVESGGGLVQAGGSLRLSCAASGFTFARYAMGWYTKAPGKERELVARISSDGGGTDYADSVKGRFTISRDNAKNTVYLQMNSLKPEDTAVYYCAARFPGYHYFKYYYWGQGTQVTVSS
polyreactivity (PSR sort gate): low polyreactivity

QVQHVESGGGLVQAGGSLRLSCAASGFIFWKNAMGWYSQAPGKERELVAAITVTGASTYYADSVKGRFTISRDNAKNTVYLQMNSLKPEDTAVYYCAAKTLSVGYVDPDYGRDYWGQGTQVTVSS
polyreactivity (PSR sort gate): low polyreactivity

QVQLVESGGGLVQAGGSLRLICAAYGLTFTRNAMGWYRQARGKERELVAGITRGGSTYHADSVKGRFTISRDNAKNTVYLQMNSLKPEYTAVYYCAAGVQYARYQARYYYWGQGTQVTVSS
polyreactivity (PSR sort gate): high polyreactivity

QFQLVESAGGLFQAVGSHRLSCAASGRTFTQYAMGWYRQAPGKERELVAAISWRGGSTYYADSVKGRFTISRDNAKNTVYLQMNSLKPEDTAVYYCAKRYFRGYPLYDYWGQGTQVTVSS
polyreactivity (PSR sort gate): high polyreactivity

QVQLVESGGGLVQAGGSLRLSCAASGRTFPRYAMGWYRQAPGKERELVADISFSGDSTSYADSVKGRFTISRDNAKNTVYLQMNSLKPEDTAVYYCNADYKSTVFRYSGSRNYWGQGTQVTVSS
polyreactivity (PSR sort gate): low polyreactivity
